Kd data for 1 molecule are collected here from paper PMC10491584, “Structural convergence endows nuclear transport receptor Kap114p with a transcriptional repressor function toward TATA-binding protein” (Nature Communications, 2023).

Numbering of substitutions follows the chain as printed.

Usually Kd stands for the constant that tells how readily two partners part at equilibrium. A high value points to weaker binding.

For assay [1], the target named is T1, Kap114p wild type (S. cerevisiae, UniProt P53067 1-1004).
T1 construct: Kap114p (karyopherin-β), S. cerevisiae, full length, amplified from total genomic DNA; GST tag followed by a PreScission site (modified pGEX6p1); PreScission protease added during dialysis; also called Kap114p WT; GST-Kap114p (plasmid pGEX-6P-1-Kap114); source: E. coli Rosetta, purified (GST resin, MonoQ, Superdex 200)
T1 sequence (looked up): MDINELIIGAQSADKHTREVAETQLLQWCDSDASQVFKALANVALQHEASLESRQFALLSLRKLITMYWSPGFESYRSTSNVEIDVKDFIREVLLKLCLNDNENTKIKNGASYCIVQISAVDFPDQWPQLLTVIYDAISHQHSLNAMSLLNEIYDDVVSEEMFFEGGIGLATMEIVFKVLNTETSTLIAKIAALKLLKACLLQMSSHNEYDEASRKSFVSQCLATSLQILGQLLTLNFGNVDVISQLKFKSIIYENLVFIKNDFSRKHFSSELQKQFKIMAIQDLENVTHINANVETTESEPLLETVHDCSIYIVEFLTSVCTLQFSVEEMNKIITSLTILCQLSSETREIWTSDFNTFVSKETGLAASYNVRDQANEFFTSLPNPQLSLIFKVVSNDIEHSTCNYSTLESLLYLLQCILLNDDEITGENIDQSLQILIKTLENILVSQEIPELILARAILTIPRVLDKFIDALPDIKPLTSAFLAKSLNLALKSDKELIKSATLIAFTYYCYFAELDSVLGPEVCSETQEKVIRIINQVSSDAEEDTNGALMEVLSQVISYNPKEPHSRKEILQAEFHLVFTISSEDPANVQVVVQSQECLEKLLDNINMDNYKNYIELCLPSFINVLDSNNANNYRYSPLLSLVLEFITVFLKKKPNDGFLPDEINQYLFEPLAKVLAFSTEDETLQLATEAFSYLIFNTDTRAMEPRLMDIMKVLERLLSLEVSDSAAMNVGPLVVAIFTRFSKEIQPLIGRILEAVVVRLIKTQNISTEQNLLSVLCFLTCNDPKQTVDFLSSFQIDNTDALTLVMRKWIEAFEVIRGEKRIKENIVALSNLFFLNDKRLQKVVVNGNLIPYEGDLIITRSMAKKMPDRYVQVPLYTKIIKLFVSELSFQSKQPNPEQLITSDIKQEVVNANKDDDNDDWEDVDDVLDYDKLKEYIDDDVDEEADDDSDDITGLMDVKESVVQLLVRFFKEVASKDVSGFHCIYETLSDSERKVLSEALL
The assay can be described thus: ITC; MicroCal iTC200, 25 °C, 20 mM HEPES pH 7.4, 150 mM NaCl; low concentration: 25 µM wild type or mutant Kap114p in the sample cell, 250 µM wild type or mutant yTBPC in the syringe; triplicate. The following applies: both partners purified. (In general: Isothermal titration calorimetry measures the heat released or taken up as one component is titrated into another.)

Assay [2] deals with T2, Kap114p (Q597A) (S. cerevisiae, UniProt P53067 1-1004, Q597A).
T2 construct: Kap114p, S. cerevisiae, full length with Q597A; also called GST-Kap114p (Q597); source: E. coli Rosetta, purified (GST resin, MonoQ, Superdex 200)
T2 sequence (looked up): T1 sequence (looked up) with Q597A
The assay can be described thus: ITC; MicroCal iTC200, 25 °C, 20 mM HEPES pH 7.4, 150 mM NaCl; high concentration: 50 µM wild type or mutant Kap114p in the sample cell, 500 µM wild type or mutant yTBPC in the syringe; triplicate. The following applies: both partners purified.

B1: yTBP^C wild type (core domain of yeast TATA-box binding protein, a.a. 61-240) (domain or fragment, S. cerevisiae, UniProt P13393 61-240, looked up)
chain: SGIVPTLQNIVATVTLGCRLDLKTVALHARNAEYNPKRFAAVIMRIREPKTTALIFASGKMVVTGAKSEDDSKLASRKYARIIQKIGFAAKFTDFKIQNIVGSCDVKFPIRLEGLAFSHGTFSSYEPELFPGLIYRMVKPKIVLLIFVSGKIVLTGAKQREEIYQAFEAIYPVLSEFRKM
notes: modified pET28a, 6xHis tag followed by a PreScission site; also called yTBPC WT; His-yTBP (61-240); source: E. coli Rosetta, purified (Ni-NTA, HiTrap SP, Superdex 75); not shown: His6, N-terminal, cleaved
B1: the Kd in assay [1] was found to be 1.4 nM; in assay [2], 7.4 nM.
